Assay results published in article PMC11341715, “Structural insights into Frizzled3 through nanobody modulators” (Nature Communications, 2024).

How the values were obtained:
Settings in all cases: both partners purified
[1] = biological target: T1, biotinylated multidomain FZD3 (C-terminally truncated, in detergent) (human, UniProt Q9NPG1, biotin (in vivo biotinylation of the Avi tag)); assay: BLI; Octet Red 96e; biotinylated multidomain FZD3 or FZD6 in detergent immobilised, nanobody or DEP in solution; 10 mM HEPES pH 7.5, 150 mM NaCl, 0.02% Tween 20, 0.005% GDN; 1:1 binding model
T1 construct: human Frizzled-3 (FZD3), UniProt Q9NPG1; C-terminally truncated construct (CRD, linker and transmembrane domain); residues 26-517 are stated for the multidomain production construct, not expressly for the Avi-tagged one; The results call it 'full-length FZD3'; the methods say the biotinylated transmembrane constructs were C-terminally truncated; Functional assays in cells used wild type FZD3 …

[2] = biological target: T2, biotinylated FZD3 cysteine-rich domain (CRD) (human, UniProt Q9NPG1, biotin (in vivo biotinylation of the Avi tag)); assay: BLI; Octet Red 96e; biotinylated FZD3 or FZD6 CRD immobilised, Nb8 or Wnt5a in solution; 10 mM HEPES pH 7.5, 150 mM NaCl, 0.02% Tween 20, 0.005% GDN; 1:1 binding model
T2 construct: human Frizzled-3 (FZD3), UniProt Q9NPG1, cysteine-rich domain; residues 26-138 are stated for the FZD3 CRD production construct, not expressly for the Avi-tagged one; The limits 26-138 are told for the Twin-Strep construct; also called FZD3 CRD; Frizzled3 CRD; source: HEK293T constitutively expressing ER-localised biotin ligase, transfected, biotinylated in vivo; not shown: Avi3, C-terminal, kept

[3] = biological target: T3, biotinylated FZD5 cysteine-rich domain (CRD) (Homo sapiens, UniProt Q13467, biotin (in vivo biotinylation of the Avi tag)); assay: BLI; BLItz System; initial qualitative test of the 10 biotinylated human FZD CRDs binding to Nb8
T3 construct: human Frizzled-5 (FZD5) cysteine-rich domain; One of 'all 10 human Frizzled CRDs'; also called FZD5 CRD; source: HEK293T constitutively expressing ER-localised biotin ligase, transfected, biotinylated in vivo; not shown: Avi3, C-terminal, kept
T3 sequence (Q13467 whole entry, looked up, the tested form may be a part): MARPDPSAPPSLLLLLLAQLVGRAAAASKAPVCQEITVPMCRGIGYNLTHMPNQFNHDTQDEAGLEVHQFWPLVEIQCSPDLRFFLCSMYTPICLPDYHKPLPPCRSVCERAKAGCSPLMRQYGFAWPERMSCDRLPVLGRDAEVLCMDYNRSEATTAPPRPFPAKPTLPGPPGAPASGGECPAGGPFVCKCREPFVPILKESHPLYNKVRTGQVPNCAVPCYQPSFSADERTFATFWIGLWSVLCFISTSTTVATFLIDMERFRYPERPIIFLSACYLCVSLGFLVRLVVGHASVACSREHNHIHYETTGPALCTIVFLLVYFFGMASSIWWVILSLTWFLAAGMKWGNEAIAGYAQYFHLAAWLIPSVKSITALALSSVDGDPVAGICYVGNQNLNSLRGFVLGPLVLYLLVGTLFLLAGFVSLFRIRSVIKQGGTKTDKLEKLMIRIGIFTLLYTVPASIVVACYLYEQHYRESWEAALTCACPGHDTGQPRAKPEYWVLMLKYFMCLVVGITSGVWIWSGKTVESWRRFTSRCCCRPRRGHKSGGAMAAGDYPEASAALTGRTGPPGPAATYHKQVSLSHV

[4] = biological target: T4, biotinylated FZD8 cysteine-rich domain (CRD) (Homo sapiens, UniProt Q9H461, biotin (in vivo biotinylation of the Avi tag)); assay: as above
T4 construct: human Frizzled-8 (FZD8) cysteine-rich domain; One of 'all 10 human Frizzled CRDs'; also called FZD8 CRD; source: HEK293T constitutively expressing ER-localised biotin ligase, transfected, biotinylated in vivo; not shown: Avi3, C-terminal, kept
T4 sequence (Q9H461 whole entry, looked up, the tested form may be a part): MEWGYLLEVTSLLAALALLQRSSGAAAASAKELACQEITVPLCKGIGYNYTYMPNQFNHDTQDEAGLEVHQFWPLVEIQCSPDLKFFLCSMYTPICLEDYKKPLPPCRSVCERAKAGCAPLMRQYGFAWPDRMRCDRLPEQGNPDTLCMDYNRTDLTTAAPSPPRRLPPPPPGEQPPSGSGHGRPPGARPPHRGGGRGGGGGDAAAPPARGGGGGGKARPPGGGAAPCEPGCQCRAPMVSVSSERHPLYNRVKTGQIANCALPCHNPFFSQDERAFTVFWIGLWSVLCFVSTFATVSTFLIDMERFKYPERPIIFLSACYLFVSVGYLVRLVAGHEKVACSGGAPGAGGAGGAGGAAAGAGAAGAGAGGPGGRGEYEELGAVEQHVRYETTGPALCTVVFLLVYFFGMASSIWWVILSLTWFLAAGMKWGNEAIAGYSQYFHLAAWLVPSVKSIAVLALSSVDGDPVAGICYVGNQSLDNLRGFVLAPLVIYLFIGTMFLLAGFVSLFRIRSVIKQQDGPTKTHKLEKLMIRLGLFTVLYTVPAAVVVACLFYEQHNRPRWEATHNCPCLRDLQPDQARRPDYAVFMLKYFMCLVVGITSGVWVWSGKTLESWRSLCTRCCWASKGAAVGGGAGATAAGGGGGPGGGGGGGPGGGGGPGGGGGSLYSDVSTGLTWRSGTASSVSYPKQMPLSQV

[5] = biological target: T5, biotinylated FZD7 cysteine-rich domain (CRD) (Homo sapiens, UniProt O75084, biotin (in vivo biotinylation of the Avi tag)); assay: as above
T5 construct: human Frizzled-7 (FZD7) cysteine-rich domain; One of 'all 10 human Frizzled CRDs'; also called FZD7 CRD; source: HEK293T constitutively expressing ER-localised biotin ligase, transfected, biotinylated in vivo; not shown: Avi3, C-terminal, kept

[6] = biological target: T6, biotinylated FZD9 cysteine-rich domain (CRD) (Homo sapiens, UniProt O00144, biotin (in vivo biotinylation of the Avi tag)); assay: as above
T6 construct: human Frizzled-9 (FZD9) cysteine-rich domain; One of 'all 10 human Frizzled CRDs'; also called FZD9 CRD; source: HEK293T constitutively expressing ER-localised biotin ligase, transfected, biotinylated in vivo; not shown: Avi3, C-terminal, kept
T6 sequence (O00144 whole entry, looked up, the tested form may be a part): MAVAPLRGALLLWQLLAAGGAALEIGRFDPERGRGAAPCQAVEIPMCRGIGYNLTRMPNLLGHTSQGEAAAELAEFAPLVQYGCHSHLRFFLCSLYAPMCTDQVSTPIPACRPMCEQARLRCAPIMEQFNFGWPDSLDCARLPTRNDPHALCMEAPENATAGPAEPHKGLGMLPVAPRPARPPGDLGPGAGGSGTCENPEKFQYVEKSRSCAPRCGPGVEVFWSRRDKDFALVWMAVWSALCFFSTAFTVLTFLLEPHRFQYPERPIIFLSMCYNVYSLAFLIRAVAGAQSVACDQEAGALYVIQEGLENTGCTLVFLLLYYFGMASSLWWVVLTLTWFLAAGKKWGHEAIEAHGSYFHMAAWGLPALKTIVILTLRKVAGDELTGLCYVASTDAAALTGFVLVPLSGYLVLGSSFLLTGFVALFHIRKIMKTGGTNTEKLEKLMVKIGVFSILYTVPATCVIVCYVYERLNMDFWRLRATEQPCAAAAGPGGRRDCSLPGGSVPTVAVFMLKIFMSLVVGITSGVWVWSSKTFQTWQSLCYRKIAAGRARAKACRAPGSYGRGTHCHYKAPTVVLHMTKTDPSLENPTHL

[7] = biological target: T7, biotinylated FZD1 cysteine-rich domain (CRD) (Homo sapiens, UniProt Q9UP38, biotin (in vivo biotinylation of the Avi tag)); assay: as above
T7 construct: human Frizzled-1 (FZD1) cysteine-rich domain; One of 'all 10 human Frizzled CRDs'; also called FZD1 CRD; source: HEK293T constitutively expressing ER-localised biotin ligase, transfected, biotinylated in vivo; not shown: Avi3, C-terminal, kept
T7 sequence (Q9UP38 whole entry, looked up, the tested form may be a part): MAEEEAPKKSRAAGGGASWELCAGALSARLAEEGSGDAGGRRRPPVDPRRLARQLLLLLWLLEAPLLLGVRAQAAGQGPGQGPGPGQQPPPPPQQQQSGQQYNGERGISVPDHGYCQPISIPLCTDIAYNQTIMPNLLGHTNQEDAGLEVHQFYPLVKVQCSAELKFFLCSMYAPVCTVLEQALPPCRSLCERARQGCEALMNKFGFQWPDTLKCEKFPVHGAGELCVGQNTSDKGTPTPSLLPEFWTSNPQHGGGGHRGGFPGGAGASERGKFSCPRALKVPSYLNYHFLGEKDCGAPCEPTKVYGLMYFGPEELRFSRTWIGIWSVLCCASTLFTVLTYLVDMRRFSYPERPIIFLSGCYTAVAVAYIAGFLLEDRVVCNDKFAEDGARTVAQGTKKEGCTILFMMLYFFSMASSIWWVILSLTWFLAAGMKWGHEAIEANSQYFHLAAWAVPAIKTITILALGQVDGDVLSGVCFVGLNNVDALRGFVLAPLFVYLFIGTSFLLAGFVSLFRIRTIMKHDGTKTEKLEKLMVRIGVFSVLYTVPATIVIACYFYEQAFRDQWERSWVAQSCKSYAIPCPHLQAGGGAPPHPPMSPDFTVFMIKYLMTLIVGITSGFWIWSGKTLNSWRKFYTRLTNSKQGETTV

[8] = biological target: T8, biotinylated FZD10 cysteine-rich domain (CRD) (Homo sapiens, UniProt Q9ULW2, biotin (in vivo biotinylation of the Avi tag)); assay: as above
T8 construct: human Frizzled-10 (FZD10) cysteine-rich domain; One of 'all 10 human Frizzled CRDs'; also called FZD10 CRD; source: HEK293T constitutively expressing ER-localised biotin ligase, transfected, biotinylated in vivo; not shown: Avi3, C-terminal, kept
T8 sequence (Q9ULW2 whole entry, looked up, the tested form may be a part): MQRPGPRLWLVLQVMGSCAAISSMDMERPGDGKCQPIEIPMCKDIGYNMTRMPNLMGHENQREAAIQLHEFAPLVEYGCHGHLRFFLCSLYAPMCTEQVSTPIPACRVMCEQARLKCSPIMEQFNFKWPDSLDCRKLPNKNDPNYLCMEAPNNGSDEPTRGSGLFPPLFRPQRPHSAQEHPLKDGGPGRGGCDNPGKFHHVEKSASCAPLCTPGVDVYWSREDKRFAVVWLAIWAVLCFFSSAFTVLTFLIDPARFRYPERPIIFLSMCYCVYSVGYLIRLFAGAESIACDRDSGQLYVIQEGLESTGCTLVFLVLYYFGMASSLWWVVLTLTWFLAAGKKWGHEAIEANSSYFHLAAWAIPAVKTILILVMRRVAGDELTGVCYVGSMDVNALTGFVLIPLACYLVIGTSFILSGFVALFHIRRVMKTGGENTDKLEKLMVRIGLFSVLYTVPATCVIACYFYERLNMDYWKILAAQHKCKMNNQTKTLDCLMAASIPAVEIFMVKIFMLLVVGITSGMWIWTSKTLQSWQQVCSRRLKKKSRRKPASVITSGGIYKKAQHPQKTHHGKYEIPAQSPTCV

[9] = biological target: T9, biotinylated FZD2 cysteine-rich domain (CRD) (Homo sapiens, UniProt Q14332, biotin (in vivo biotinylation of the Avi tag)); assay: as above
T9 construct: human Frizzled-2 (FZD2) cysteine-rich domain; One of 'all 10 human Frizzled CRDs'; also called FZD2 CRD; source: HEK293T constitutively expressing ER-localised biotin ligase, transfected, biotinylated in vivo; not shown: Avi3, C-terminal, kept
T9 sequence (Q14332 whole entry, looked up, the tested form may be a part): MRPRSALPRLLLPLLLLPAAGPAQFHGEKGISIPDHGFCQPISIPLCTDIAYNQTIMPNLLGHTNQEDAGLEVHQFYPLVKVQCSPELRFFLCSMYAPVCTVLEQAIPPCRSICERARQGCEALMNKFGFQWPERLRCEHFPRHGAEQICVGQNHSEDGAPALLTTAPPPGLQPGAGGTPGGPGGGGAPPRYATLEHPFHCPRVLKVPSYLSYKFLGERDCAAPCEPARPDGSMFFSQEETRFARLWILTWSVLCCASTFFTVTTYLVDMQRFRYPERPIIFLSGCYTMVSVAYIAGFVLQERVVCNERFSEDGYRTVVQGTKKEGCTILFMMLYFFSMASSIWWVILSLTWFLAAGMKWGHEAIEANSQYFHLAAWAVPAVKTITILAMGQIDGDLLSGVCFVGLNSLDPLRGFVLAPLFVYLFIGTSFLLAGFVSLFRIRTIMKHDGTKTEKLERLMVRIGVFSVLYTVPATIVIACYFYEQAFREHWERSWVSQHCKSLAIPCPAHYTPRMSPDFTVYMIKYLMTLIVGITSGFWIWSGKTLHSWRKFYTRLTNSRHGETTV

[10] = biological target: T10, biotinylated FZD4 cysteine-rich domain (CRD) (Homo sapiens, UniProt Q9ULV1, biotin (in vivo biotinylation of the Avi tag)); assay: as above
T10 construct: human Frizzled-4 (FZD4) cysteine-rich domain; One of 'all 10 human Frizzled CRDs'; also called FZD4 CRD; source: HEK293T constitutively expressing ER-localised biotin ligase, transfected, biotinylated in vivo; not shown: Avi3, C-terminal, kept
T10 sequence (Q9ULV1 whole entry, looked up, the tested form may be a part): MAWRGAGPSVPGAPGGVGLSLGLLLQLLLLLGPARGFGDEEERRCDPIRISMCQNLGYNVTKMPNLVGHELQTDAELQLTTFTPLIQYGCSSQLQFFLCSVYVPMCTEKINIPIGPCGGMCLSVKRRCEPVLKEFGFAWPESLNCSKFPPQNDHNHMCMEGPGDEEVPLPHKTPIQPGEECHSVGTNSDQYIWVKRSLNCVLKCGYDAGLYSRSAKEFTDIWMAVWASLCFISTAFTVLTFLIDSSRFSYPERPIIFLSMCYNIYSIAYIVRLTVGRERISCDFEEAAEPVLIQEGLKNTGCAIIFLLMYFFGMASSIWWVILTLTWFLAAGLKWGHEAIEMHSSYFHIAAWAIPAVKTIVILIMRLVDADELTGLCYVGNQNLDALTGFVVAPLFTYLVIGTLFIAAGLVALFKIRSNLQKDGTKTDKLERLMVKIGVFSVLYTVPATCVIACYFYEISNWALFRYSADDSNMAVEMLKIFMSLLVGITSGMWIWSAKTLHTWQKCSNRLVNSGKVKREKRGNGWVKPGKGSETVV

[11] = biological target: T11, biotinylated FZD6 (C-terminally truncated transmembrane construct, in detergent) (Homo sapiens, UniProt O60353, biotin (in vivo biotinylation of the Avi tag)); assay: BLI; Octet Red 96e; biotinylated multidomain FZD3 or FZD6 in detergent immobilised, nanobody or DEP in solution; 10 mM HEPES pH 7.5, 150 mM NaCl, 0.02% Tween 20, 0.005% GDN; 1:1 binding model
T11 construct: Frizzled-6 (FZD6), C-terminally truncated transmembrane construct; the methods say C-terminal truncated, without limits; also called full length FZD6; source: HEK293T with biotin ligase, transfected, biotinylated in vivo, in detergent; not shown: Avi3, C-terminal, kept
T11 sequence (O60353 19-706): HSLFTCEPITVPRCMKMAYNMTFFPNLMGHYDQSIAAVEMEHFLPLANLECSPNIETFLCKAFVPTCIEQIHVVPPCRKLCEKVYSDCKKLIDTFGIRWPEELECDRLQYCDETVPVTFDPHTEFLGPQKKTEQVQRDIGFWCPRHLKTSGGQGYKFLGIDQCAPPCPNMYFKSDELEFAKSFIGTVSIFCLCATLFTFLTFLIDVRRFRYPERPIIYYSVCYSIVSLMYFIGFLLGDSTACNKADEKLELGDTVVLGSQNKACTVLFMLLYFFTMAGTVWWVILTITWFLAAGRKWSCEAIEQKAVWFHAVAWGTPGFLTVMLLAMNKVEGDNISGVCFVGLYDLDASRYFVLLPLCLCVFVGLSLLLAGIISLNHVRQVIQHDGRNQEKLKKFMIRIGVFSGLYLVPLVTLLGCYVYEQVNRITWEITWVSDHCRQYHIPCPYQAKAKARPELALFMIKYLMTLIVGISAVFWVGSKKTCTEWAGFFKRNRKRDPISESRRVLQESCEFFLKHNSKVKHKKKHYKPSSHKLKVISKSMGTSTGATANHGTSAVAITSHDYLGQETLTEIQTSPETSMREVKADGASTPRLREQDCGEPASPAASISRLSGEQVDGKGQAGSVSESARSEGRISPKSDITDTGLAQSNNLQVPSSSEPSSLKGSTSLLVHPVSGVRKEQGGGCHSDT

B1: Nb1 (VHH)
VHH: QVQLVESGGGLVQAGGSLRLSCAASGNIFSINAMGWYRQAAGKQRELVAAITSGGSTNYADSVKGRFTISRDNAKNTVYLQMNSLKPEDTAVYYCNADEWALGEHWGQGTQVTVSS
notes: also called nanobody 1; family 1 (Nb1, 3-6)
- binding result [1]: binds

B2: Nb8 (VHH)
VHH: QVQLVESGGGLVQAGGSLRLSCAASGSISSINAMGWYRQAPGKQRELVAAITSGGSTNYADSVKGRFTISRDNAKNTVYLQMNSLKPGDTAVYYCNLLYYIDYVEYDYWGQGTQVTVSS
notes: also in PDB 8Q7O; residues 1-119 are named for the Nb8 module of the surrogate; Untagged in the crystallisation sample; also called nanobody 8; family 2; source: co-expressed untagged with FZD3 CRD in HEK293S GnTI- cells (for crystallisation)
- Kd [2]: 19.2 ± 1.2 nM
- binding result [3]: no binding
- binding result [4]: no binding
- binding result [5]: no binding
- binding result [6]: no binding
- binding result [7]: no binding
- binding result [8]: no binding
- binding result [9]: no binding
- binding result [10]: no binding

B3: Nb9 (VHH)
VHH: QVQLVESGGGLVQAGGSLRLSCTASGRIFNLDVMGWYRQAPGKRRELVADITSGGKINYADSVKGRFTISRDNTKDTVYLQMNSLKPEDTAVYYCNAEVEWLDMDYWGKGTQVTVSS
notes: most of the chain also in PDB 8QW4 (as the megabody); also called nanobody 9; family 3
- Kd [11]: 410 ± 41 nM
- Kd [1]: 32 ± 2.8 nM
